According to the supplement of paper PMC9732359:
± gives the uncertainty stated by the source.

Test: protein stability index of a GFP-peptide fusion (yeast GPS) (PSI 1-4); higher = more stable; sorted into four equal gates, so the index is relative within each strain
Summary of the method: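 The protein stability index combines read frequencies across sorting gates, each weighted by its gate number and then summed. To obtain those frequencies, a pooled yeast library of GFP fusions to tiled 17-residue yeast protein peptides, on a plasmid also expressing Cherry, was grown to mid-log phase in leucine-free medium. The cells were sorted into four equal gates by GFP/Cherry ratio before plasmid amplification by PCR and Illumina sequencing.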

Sequence	protein stability index (doa10∆)	protein stability index (pdr5∆)	protein stability index (san1∆)	protein stability index (ubr1∆)
LQVGDVVSTTAVIESVV [FAS1]	2.33 ± 0.056	1.59 ± 0.056	2.04 ± 0.091	2.01 ± 0.049
LEKLVDHHPEGLSAREA [PRE10]	2.92 ± 0.068	2.9 ± 0.059	2.65 ± 0.067	2.62 ± 0.058
EEAKSVLPAATKKKSKF [ARP9]	2.1 ± 0.062	2.25 ± 0.043	2.04 ± 0.06	2.31 ± 0.036
TQVFNILLQHKEKLTVQ [POP1]	3.1 ± 0.084	3.11 ± 0.066	3.13 ± 0.058	2.94 ± 0.036
IREGQNQKIPDNVIVIN [SIR3]	2.9 ± 0.049	3.12 ± 0.065	2.98 ± 0.057	3 ± 0.046
SKIQEIESIRSCKDSQL [YIL149C/MLP2]	2.29 ± 0.044	2.92 ± 0.054	2.77 ± 0.041	2.79 ± 0.047
VQYKLLSISVPSDVNID [SNU114]	1.98 ± 0.076	2.5 ± 0.069	2.1 ± 0.074	2.44 ± 0.069
LPRKEVDDVLGGGWDNV [RPC11]	3.17 ± 0.1	3.63 ± 0.14	3.26 ± 0.066	3.32 ± 0.099
TTNLDIDLLTFQYGSRL [RPP1]	3.29 ± 0.087	3.22 ± 0.073	3.06 ± 0.092	2.98 ± 0.055
AVCSTATVVSTNHSAAA [PGD1]	2.85 ± 0.064	3.02 ± 0.077	2.59 ± 0.096	2.91 ± 0.061
EAAAAEEGEEEEVKEEV [RPS0B]	3.24 ± 0.13	3.48 ± 0.049	3.19 ± 0.069	3.37 ± 0.11
HGGSRYATKDGVAHLLN [QCR2]	3.13 ± 0.094	2.82 ± 0.055	3.3 ± 0.1	3.09 ± 0.072
AVARLKSMNKSAINQYN [SNF2]	1.81 ± 0.073	2.33 ± 0.076	2.34 ± 0.052	2.88 ± 0.032
RILNFFDKNTKTTPNTA [YMR153W/NUP53]	2.42 ± 0.051	2.53 ± 0.055	2.56 ± 0.048	2.43 ± 0.047
SYVVPRLYLKDQTNHIE [ECM29]	2.62 ± 0.076	1.83 ± 0.046	2.83 ± 0.056	2.15 ± 0.033
YATKDGVAHLLNRFNFQ [QCR2]	2.45 ± 0.088	2.67 ± 0.053	1.87 ± 0.29	2.6 ± 0.057
GQKLLAIKYGYEDSGST [SRB4]	2.83 ± 0.11	2.91 ± 0.098	2.53 ± 0.1	3.25 ± 0.11
ARTAANSIYCPTQTVAE [RPN6]	2.63 ± 0.062	1.76 ± 0.067	1.42 ± 0.11	2.04 ± 0.045
RYVAGVQQRYTQSGGVR [PRE6]	2.84 ± 0.23	–	–	–
GINKNEEYRKQLDKKNE [SMC1]	3.22 ± 0.12	2.62 ± 0.069	2.3 ± 0.082	2.58 ± 0.045
GLVCADTFRAGAFDQLK [SRP54]	3.14 ± 0.1	3.54 ± 0.1	3.34 ± 0.11	3.25 ± 0.084
EVSQFLIENGASVRIKD [NAS6]	3.08 ± 0.21	2.39 ± 0.2	–	2.71 ± 0.12
HDAPRGLFPFESYKPSV [SWI3]	3.31 ± 0.091	3.08 ± 0.11	3.15 ± 0.11	3.1 ± 0.079
WQIEEAGNSQITSGGFL [SRB5]	2.98 ± 0.2	3.13 ± 0.17	3.07 ± 0.25	3.23 ± 0.14
TPKLQTQLSYLISSSLS [YCS4]	1.95 ± 0.047	2.14 ± 0.052	2 ± 0.08	2.09 ± 0.046
TEYFENKQSVSNLSPDL [DSN1]	3.48 ± 0.13	3.4 ± 0.1	3.34 ± 0.089	3.58 ± 0.058
NVLCVNIKSNDFSIRKT [ECM29]	2.52 ± 0.068	2.66 ± 0.099	2.58 ± 0.1	2.6 ± 0.071

Sequence	protein stability index (doa10∆)	protein stability index (pdr5∆)	protein stability index (san1∆)	protein stability index (ubr1∆)
GKALVHHYEECAERVKI [QCR6]	3.47 ± 0.093	3.28 ± 0.1	3.25 ± 0.073	3.39 ± 0.074
LMATEYQDIEGGFEDVE [RPB2]	3.43 ± 0.14	3.31 ± 0.11	3.49 ± 0.069	3.44 ± 0.099
ELNIIPRDLLRVIIQEL [PRP28]	1.15 ± 0.062	1.4 ± 0.061	1.38 ± 0.21	1.15 ± 0.045
PIIIYGTENTERPPLLP [YOR098C/NUP1]	3.13 ± 0.09	2.74 ± 0.1	2.97 ± 0.06	2.94 ± 0.048
SHNENKMDFSSKEGQYK [YIL149C/MLP2]	3.27 ± 0.077	3.29 ± 0.07	3.25 ± 0.065	3.28 ± 0.064
YNIDANVIDTQRKNGVT [ECM29]	2.75 ± 0.25	3.14 ± 0.092	3.26 ± 0.12	–
KRNSDKVEYKIVHDDPA [ITC1]	2.12 ± 0.072	2.02 ± 0.083	1.95 ± 0.13	1.27 ± 0.053
KKASEISVSSRSDREYP [SRP14]	3.19 ± 0.096	3.1 ± 0.12	2.99 ± 0.1	2.87 ± 0.082
NIRNNIESQNLDLIPHS [SRB4]	2.62 ± 0.052	2.92 ± 0.046	2.62 ± 0.05	2.7 ± 0.029
EQGIELEHIDSKSEFAH [FAS2]	2.88 ± 0.096	2.15 ± 0.12	3.08 ± 0.13	2.15 ± 0.16
ESGLVNADLDVKDELMF [RPO21]	3.16 ± 0.059	3.27 ± 0.06	3.23 ± 0.059	3.3 ± 0.038
IRKDPNNLSNQLETLTG [CSE2]	2.87 ± 0.11	2.91 ± 0.098	2.68 ± 0.11	2.77 ± 0.095
DKLINDVTAIQTWSYLS [ECM29]	1.77 ± 0.04	1.78 ± 0.04	1.74 ± 0.087	1.83 ± 0.044
VDEEDENGTHNDEVNED [YCG1]	3.46 ± 0.09	3.32 ± 0.17	3.55 ± 0.11	3.51 ± 0.077
EEEESILIAMQPEDLEP [RPB2]	–	–	2.33 ± 0.13	–
NQKLALVIKSGKYTLGY [RPL30]	2.46 ± 0.11	2.87 ± 0.09	2.29 ± 0.13	2.93 ± 0.047
VDNVWADVYAKALEGKD [RPP1B]	3.14 ± 0.1	3.1 ± 0.16	3.35 ± 0.12	3.06 ± 0.11
KGKYRNRRWTQRRGPLV [RPL4A]	2.97 ± 0.17	3.29 ± 0.18	–	–
IWMRGHGTYFLDNMTYS [RRP4]	2.45 ± 0.06	2.38 ± 0.051	2.31 ± 0.082	2.19 ± 0.054
ATSFSRKKARTFDSSWN [FAS2]	2.22 ± 0.17	2.99 ± 0.18	2.65 ± 0.16	3.05 ± 0.076
AGEFGLKNKKEIYRISF [RPS9A]	2.58 ± 0.065	2.95 ± 0.089	3.08 ± 0.14	2.77 ± 0.066
ATQSGGVRPFGVSLLIA [PRE8]	1.29 ± 0.071	1.62 ± 0.071	1.4 ± 0.17	1.51 ± 0.064
FDDACNQIWNIALNLAS [SSN2]	3.01 ± 0.15	2.88 ± 0.078	2.91 ± 0.2	2.62 ± 0.14
QFSYVDSSMTTVQENEL [AAR2]	2.62 ± 0.044	2.99 ± 0.05	2.98 ± 0.04	2.95 ± 0.052
IIKMTIPYAAKLLFQEL [RET1]	2.18 ± 0.1	2.08 ± 0.12	1.75 ± 0.22	1.9 ± 0.073
STSFSFNAPATGNGTTT [YOR098C/NUP1]	2.73 ± 0.042	2.97 ± 0.037	3.03 ± 0.033	3.005 ± 0.028
